Paper PMC4209447

Experiments:
[1] = molecular target: protein A/G (recombinant fusion protein with protein A and protein G binding sites)
[2] = molecular target: protein A/G (recombinant fusion protein with protein A and protein G binding sites); remark: listed apart in the source

peak wavelength shift after 80 minutes of injection [1]: 6 nm | exponential constant of the fit to the association phase (peak wavelength shift) [2]: 0.000533
Substance: Human IgG protein (antibody)
